Test results as given in the supplement of paper PMC10126150.
± gives the standard deviation of the averaged measurements.

Test system: ATP
Assay: switch fluorescence ratio, 500 uM ATP over buffer (Cy3 cluster intensity, sum of 5 cycles each) (fold (ratio)); higher = stronger signal-on switching upon ATP binding; sequences stand for … in TCGTCGGCAGCGTCAGATGTGTATAAGAGACAGTTTTTTTTTTTTTTTTTTTTTTTTT…TC
Conditions: aptamer strand: ATP DNA aptamer (quencher-CACCTGGGGGAGTATTGCGGAGGAAGG + anchor), 100 nM annealed; ATP concentration: 500 uM
Method in brief: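 Exposure to 500 uM ATP lasted 15 min at 22 °C before imaging, and a selection-buffer image was taken beforehand, for Cy3-labelled switching-strand clusters on a modified Illumina MiSeq flow-cell annealed to 100 nM quencher-labelled ATP aptamer. Five buffer/ATP cycles were run with NaOH stripping and re-annealing between them. The fluorescence ratio per cluster is summed target-cycle over summed buffer-cycle Cy3 intensity, averaged per switch-domain sequence. Clusters outside 100-1000 RFU were excluded.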

Sequence	switch fluorescence ratio
CTGGGGAAAC	1.03 ± 0.064
TTGGGTTGGA	0.996 ± 0.017
TCATTTGGGA	1.008 ± 0.0033
GTGTTATTAG	1.005 ± 0.007
AGGGCAGAGG	0.98599 ± 0.00021
TACTTTGGGC	1.03 ± 0.065
CTTTACTCAC	1.27 ± 0.019
TGGTTGTGCG	1.04 ± 0.018
GAGGTAGATG	0.991 ± 0.0012
TAAAAGTATT	1.03 ± 0.068
GTCGTCTAAG	0.973 ± 0.051
GTGGGATAGG	0.985 ± 0.038
GGAAGCGTTC	1.03 ± 0.04
TTTGATATAT	0.972 ± 0.012
TTTTTAGAGT	0.985 ± 0.026
GAATGGCACA	0.998 ± 0.016
GTTTTGGTTT	0.986 ± 0.024
CCGCATTGGG	3.35 ± 0.93
TTAAGTACG	1.22 ± 0.09
CGATCCGGCG	1.08 ± 0.16
CACTTGGTTG	0.997 ± 0.051
TGTCATGTAT	0.987 ± 0.021
ACTTATTGTA	0.9878 ± 0.0098

Sequence	switch fluorescence ratio
CAATTGGAAC	0.99578 ± 8.3e-05
TGTAACTGTG	1.15 ± 0.028
CGAAAGTTTA	1.008 ± 0.0021
ATTAAGTTTT	1 ± 0.028
GGGTGAGTTT	1.038 ± 0.0051
GGGTAATTTT	1.02 ± 0.047
ATTCAAAAAA	0.999 ± 0.039
AGGTGGAGGG	1 ± 0.032
AATGTGGCTA	1.01 ± 0.037
AAGATTTTGG	0.979 ± 0.015
GCTAGTGCTT	0.956 ± 0.011
GATGTACAGT	1.035 ± 0.0072
TTAAAGGGGT	1.05 ± 0.1
CTGGAGACAG	1.07 ± 0.018
ACCGTGATGT	1.08 ± 0.024
CGGTTATGGA	0.999 ± 0.026
TTTATGAGTT	0.988 ± 0.029
GGCCTAGTTT	0.9799 ± 0.0073
GGAAACTTTG	1.04 ± 0.11
GATGGACCTT	1.08 ± 0.11
ACGCGGGTTT	1.02 ± 0.02
GGGAATTTTA	1.01 ± 0.012
CGTATTTTT	0.99 ± 0.018

Sequence	switch fluorescence ratio
ATAGTTATGT	1.0153 ± 0.00095
CGATGTTTTC	1.03 ± 0.073
TACGGTGGGA	1.0079 ± 0.00053
GCAGCATCGG	1.12 ± 0.021
GGTTTTTTGT	0.992 ± 0.017
CCCGAATATT	1.06 ± 0.029
GGATCGGTCA	1.016 ± 0.0089
GACGTAAAAG	1.097 ± 0.0096
TCGATTCAGC	0.979 ± 0.025
ACTCAGTATA	1.1 ± 0.02
TTGGATGTTG	1.01 ± 0.034
GGTTGGACAG	0.988 ± 0.011
TATTGGGGAA	0.978 ± 0.01
TTAAACGGAG	1.034 ± 0.0052
TGGTTTGGTG	0.985 ± 0.034
TTGGAGAGAA	0.974 ± 0.022
TAAAGGATG	0.968 ± 0.019
TACGGTAAAA	0.986 ± 0.044
TTTCAGGGTC	1.15 ± 0.19
GTTTGATGTC	1 ± 0.1
TTGTTTCTCT	0.959 ± 0.016
AACTCGGGGT	1.02 ± 0.05
TCAAACGTAG	0.9793 ± 0.0085

Sequence	switch fluorescence ratio
TAGGGGTGCG	1 ± 0.038
TTTGGTTCAG	0.994 ± 0.018
GTCGTATGAC	1.08 ± 0.042
GAGGCCATTT	1.01 ± 0.046
TGTTATATGC	1 ± 0.019
TTTGGTACTT	0.986 ± 0.039
TCAACTGGAT	0.9502 ± 0.0053
TGAAACTTGT	1.01 ± 0.041
GAAGGTTATA	1 ± 0.047
CCGTGTGGGT	1.01 ± 0.018
AAGATGTTAG	0.9926 ± 0.0062
AAGTGAGGGG	0.998 ± 0.028
AAAGCATAAC	1.91 ± 0.14
GAAGAACGGG	1.006 ± 0.0036
TCAGAGGCTG	0.988 ± 0.015
TTGGGAAGGG	1 ± 0.032
GGGTCCGGCC	0.992 ± 0.02
TCACTTCAAT	1.033 ± 0.0099
CGATATAAGT	1 ± 0.025
CCATTTTTGC	1 ± 0.022
AAGGTGTTTG	1.05 ± 0.04
TCGGTGGAGC	1.02 ± 0.13
TTCGGGGCAT	1.05 ± 0.097

Sequence	switch fluorescence ratio
AAAGTGGTCT	1 ± 0.015
ATTGACGAGG	1.001 ± 0.0026
ATTCTTTGTT	0.962 ± 0.045
AATATTTTTG	1 ± 0.019
GCTCGTTTGG	0.9745 ± 0.0041
ACCGTATTTG	1.119 ± 0.0047
CGGCAACGGT	1.01 ± 0.011
AATTTTATTG	0.988 ± 0.05
GGTGGTGGGT	0.986 ± 0.021
AGCAAGTTGT	1.03 ± 0.011
TCGCAGTGGG	1.12 ± 0.034
GGGTATACGG	0.982 ± 0.086
AAAGGTGTGT	1.04 ± 0.073
TTGAGTTAC	1.03 ± 0.06
GTGGGTGATA	0.994 ± 0.036
GGGGTAGTCA	1 ± 0.035
TGTTGGGGTG	0.997 ± 0.045
TCCGATGCGT	2.97 ± 2.8
TGTTTCGTTT	1 ± 0.055
TAGCCTTTTT	0.955 ± 0.015
TGGTTCTCGA	0.987 ± 0.012
TTTTGTTTAT	1.01 ± 0.058
CGGATTGGGA	1.002 ± 0.0026

Sequence	switch fluorescence ratio
TGGGGACTTT	1.04 ± 0.045
TTTATGAGAG	1.08 ± 0.092
CGTATGGGGC	0.948 ± 0.087
AGTATTTAGG	0.9808 ± 0.0043
ATGTTGATAT	1.01 ± 0.045
CGCAGCCAGG	3.33 ± 0.27
GAGAGATAGT	1.03 ± 0.015
GCAGGTGGGG	1.1 ± 0.022
GTTTTGACAC	1.02 ± 0.013
ATTCTCTGGT	1.01 ± 0.076
CATTTTGTTT	0.998 ± 0.054
TATGGCGGTC	0.92422 ± 0.00078
TGCTGAGGGC	1.01 ± 0.013
TTTGAATTTC	0.988 ± 0.021
AATTCAGGGG	1.07 ± 0.069
TTTAGGCGGG	1.05 ± 0.044
GCGGCCTGGG	1.02 ± 0.049
GTAAAAGTTT	0.979 ± 0.01
CTTAGATGGA	0.978 ± 0.023
GGGGTAGAGA	0.99 ± 0.015
TAAGGGTGCA	0.994 ± 0.064
CGTGTAAGGC	0.993 ± 0.025
GACGTAACGG	1.082 ± 0.0014

Sequence	switch fluorescence ratio
GGGTTCGTTA	0.993 ± 0.029
TTTCACAGTA	1.03 ± 0.03
GGGTCTGCAC	0.997 ± 0.013
ACTAGTATGG	1.03 ± 0.053
AGTTACGGGC	1.01 ± 0.017
TCGAAAAGGA	1.02 ± 0.026
GGTTTATGGG	0.975 ± 0.037
CACGGCAGGG	1.01 ± 0.012
GGTTAAGGGT	0.9892 ± 0.0056
TATCTTAGGC	1.01 ± 0.027
TTAATTTTA	1.014 ± 0.0011
CGATGAGGGT	1.01 ± 0.029
CTCGTCACTC	1.232 ± 0.0097
TAGGTTATTG	0.995 ± 0.024
CTGGGGGTAG	1.01 ± 0.016
ATGTACGATA	1.14 ± 0.043
ATTTTTAGAA	1.03 ± 0.013
ATCAAGCCAA	1.005 ± 0.0018
AGAGTCGTCA	0.965 ± 0.0068
